These results are taken from patent US20200392228A1 (PANDION OPERATIONS, published 2020).

Where a chain is given by its changes, count along the chain named.

This assay concerns the target T1, mouse MAdCAM expressed on cells (mouse, UniProt Q61826 22-405).
T1 construct: whole, on cells
T1 sequence (looked up): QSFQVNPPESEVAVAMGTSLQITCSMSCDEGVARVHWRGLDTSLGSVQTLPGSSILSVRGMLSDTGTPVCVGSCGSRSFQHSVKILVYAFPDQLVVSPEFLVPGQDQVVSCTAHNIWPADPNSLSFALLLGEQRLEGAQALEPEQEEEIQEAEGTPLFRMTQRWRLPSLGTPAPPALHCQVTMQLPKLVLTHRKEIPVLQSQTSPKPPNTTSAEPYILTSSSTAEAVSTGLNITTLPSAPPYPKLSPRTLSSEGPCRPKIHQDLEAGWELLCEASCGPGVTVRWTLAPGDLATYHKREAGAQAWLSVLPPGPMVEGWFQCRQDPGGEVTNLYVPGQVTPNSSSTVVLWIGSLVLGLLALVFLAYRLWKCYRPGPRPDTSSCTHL
As to the kind of experiment: cell binding.

B1: MAdCAM antibody Clone ID 62 of Table 7 (IgG) (antibody, V domains shown)
VH: QVQLVQSGAEVKKPGASVKVSCKASGYTFTSYDINWVRQAPGQGLEWMGWINPNSGTTGYAQKFQGRVTMTRDTSTSTVYMELSSLRSEDTAVYYCARSPYYYYGMDVWGQGTTVTVSS
VL: DIQMTQSPSSLSASVGDRVTITCRASHFISRWVAWYQQKPGKAPKLLIYAASTLQSGVPSRFSGSGSGTDFTLTISSLQPEDFATYYCQQSYSGISFGPGTKVDIK
notes: IgG format
Regarding B1, the binding result was “no binding”.

B2: MAdCAM antibody Clone ID 68 of Table 7 (IgG) (antibody, V domains shown)
VH: EVQLLESGGGLVQPGGSLRLSCAASGFTFGDYAMSWVRQAPGKGLEWVAVVSYDGTNKYYADSVKGRFTISRDNSKNTLYLQMNSLRAEDTAVYYCAKDICSSTSCYFDLWGRGTLVTVSS
VL: DIQMTQSPSSLSASVGDRVTITCRASQNINNYVNWYQQKPGKAPKLLIYDASNLETGVPSRFSGSGSGTDFTLTISSLQPEDFATYYCQQANSFPPTFGQGTRLEIK
notes: IgG format
B2: the binding result was “no binding”.

B3: MAdCAM antibody Clone ID 35 of Table 7 (IgG) (antibody, V domains shown)
VH: QVQLVQSGAEVKKPGASVKVSCKASGYTFTGYYIHWVRQAPGQGLEWMGWMNPNSGNTGYAQKFQGRVTMTRDTSTSTVYMELSSLRSEDTAVYYCARDPGFLGYSSGGSSYDGWFDPWGQGTLVTVSS
VL: DIQMTQSPSSLSASVGDRVTITCRASQSISSYLHWYQQKPGKAPKLLIYAASSLQSGVPSRFSGSGSGTDFTLTISSLQPEDFATYYCQQSYTAPYTFGQGTKLEIK
notes: IgG format
As to B3, the binding result is on record as “no binding”.

B4: MAdCAM antibody Clone ID 69 of Table 7 (IgG) (antibody, V domains shown)
VH: QVQLVQSGAEVKKPGASVKVSCKASGYTFTSYYMHWVRQAPGQGLEWMGIIDPSGGSTSYAQKFQGRVTMTRDTSTSTVYMELSSLRSEDTAVYYCAREEWSSGGVGYFDYWGQGTLVTVSS
VL: B3 VL with S28G, H34A, A51T, S56T, S91T, T93S, A94I, Y96I, K103R
notes: IgG format
For the molecule B4, the binding result is given as “no binding”.

B5: MAdCAM antibody Clone ID 53 of Table 7 (IgG) (antibody, V domains shown)
VH: QVQLVQSGAEVKKPGASVKVSCKASGYTFTSYYMHWVRQAPGQGLEWMGWMNPNSGNTGYAQKFQGRVTMTRDTSTSTVYMELSSLRSEDTAVYYCAREGLGYCTNGVCWNYYGMDVWGQGTLVTVSS
VL: B3 VL with S28G, Y32W, H34A, A50G, T93S, A94T, L104V
notes: IgG format
In the case of B5, the binding result is recorded as “no binding”.

B6: MAdCAM antibody Clone ID 70 of Table 7 (IgG) (antibody, V domains shown)
VH: QVQLVQSGAEVKKPGASVKVSCKASGYPFTDYYMHWVRQAPGQGLEWMGWIKPNSGDTEYAQKFQGRVTMTRDTSTSTVYMELSSLRSEDTAVYYCARDRFVGKPDYYYYGMDVWGQGTMVTVSS
VL: B3 VL with S31V, Y32W, H34A, T93D, A94T
notes: IgG format
Take B6: the binding result is given as “no binding”.

B7: MAdCAM antibody Clone ID 32 of Table 7 (IgG) (antibody, V domains shown)
VH: QVQLVQSGAEVKKPGASVKVSCKASGYTLTTWYMYWVRQAPGQGLEWMGWINPNRGATNYAQKFQGRVTMTRDTSTSTVYMELSSLRSEDTAVYYCAKGDLWGAMDVWGQGTLVTVSS
VL: B3 VL with Q27D, S28N, S30G, Y32W, H34A, S91G, T93S, A94T, Y96P, L104V
notes: IgG format
As for B7, the binding result was “no binding”.

B8: MAdCAM antibody Clone ID 56 of Table 7 (IgG) (antibody, V domains shown)
VH: EVQLVESGGGLVKPGGSLRLSCAASGFTFSSYWMSWVRQAPGKGLEWVSAIGTGGGTYYAAPVKGRFTISRDDSKNTLYLQMNSLKTEDTAVYYCAREWLVPYYGMDVWGQGTTVTVSS
VL: B3 VL with S31R, Y32W, H34A, A50G, S53N, T93S, A94T, Y96W, L104V
notes: IgG format
Regarding B8, the binding result is “no binding”.

B9: MAdCAM antibody Clone ID 12 of Table 7 (IgG) (antibody, V domains shown)
VH: B7 VH
VL: B3 VL with Q27D, S28N, S30G, Y32W, H34A, S91G, T93S, A94T, Y96P, L104V
notes: IgG format
Turning to B9, the binding result is reported as “no binding”.

B10: MAdCAM antibody Clone ID 40 of Table 7 (IgG) (antibody, V domains shown)
VH: B7 VH
VL: B3 VL with Q27D, S28N, S30G, Y32W, H34A, S91G, T93S, A94T, Y96P, L104V
notes: IgG format
Consider B10, for which the binding result was “no binding”.

B11: MAdCAM antibody Clone ID 67 of Table 7 (IgG) (antibody, V domains shown)
VH: QVQLVQSGAEVKKPGASVKVSCKASGYTFTGYYMHWVRQAPGQGLEWMGMIYPRDGSTSYAQKFQGRVTMTRDTSTSTVYMELSSLRSEDTAVYYCAMTGWGYGMDVWGKGTTVTVSS
VL: B3 VL with S28G, S30N, S31N, H34A, A50D, S53T, T93S, Y96P
notes: IgG format
As for B11, the binding result is “no binding”.

B12: MAdCAM antibody Clone ID 71 of Table 7 (IgG) (antibody, V domains shown)
VH: QVQLVQSGAEVKKPGASVKVSCKASGYTFTSYYMHWVRQAPGQGLEWMGIINPSGGSTSYAQKFQGRVTMTRDTSTSTVYMELSSLRSEDTAVYYCARDSVAGTGGRYYGMDVWGQGTLVTVSS
VL: B3 VL with S28G, S31N, L33F, H34A, S56G, T93S, A94L
notes: IgG format
On to B12, for which the binding result was “no binding”.

B13: MAdCAM antibody Clone ID 72 of Table 7 (IgG) (antibody, V domains shown)
VH: QVQLVQSGAEVKKPGASVKVSCKASGYTFTSYYMHWVRQAPGQGLEWMGVINPIGGTTTYAQKFQGRVTMTRDTSTSTVYMELSSLRSEDTAVYYCASGAPSYYYYGMDVWGQGTLVTVSS
VL: B3 VL with H34N, A50G, A51T, S53Y, Q55A, S56T, T93S, A94T, Y96L, L104V
notes: IgG format
Take B13: the binding result was “no binding”.

B14: MAdCAM antibody Clone ID 33 of Table 7 (IgG) (antibody, V domains shown)
VH: B7 VH with L113T
VL: B3 VL with Q27D, S28N, S30G, Y32W, H34A, S91G, T93S, A94T, Y96P, L104V
notes: IgG format
As to B14, the binding result is “no binding”.

B15: MAdCAM antibody Clone ID 63 of Table 7 (IgG) (antibody, V domains shown)
VH: EVQLLESGGGLVQPGGSLRLSCAASGFTFNNYGMNWVRQAPGKGLEWVSRINSDGSSTSYADSVKGRFTISRDNSKNTLYLQMNSLRAEDTAVYYCARGAYYYYYMDVWGQGTLVTVSS
VL: EIVMTQSPATLSVSPGERATLSCRASQSVSGSYLAWYQQKPGQAPRLLIYATSSRASGIPARFSGSGSGTEFTLTISSLQSEDFAVYYCQQYYSGLTFGQGTKVEIK
notes: IgG format
In the case of B15, the binding result is “no binding”.

B16: MAdCAM antibody Clone ID 55 of Table 7 (IgG) (antibody, V domains shown)
VH: EVQLLESGGGLVQPGGSLRLSCAASGFTFDDFAMHWVRQAPGKGLEWVSGISGNGDSRYYADSVKGRFTISRDNSKNTLYLQMNSLRAEDTAVYYCARDASYGGNYGMDVWGQGTTVTVSS
VL: DIQMTQSPSSLSASVGDRVTITCQASQDIRNYLNWYQQKPGKAPKLLIYKASTLESGVPSRFSGSGSGTDFTLTISSLQPEDFATYYCQQANSFPLTFGPGTKVDIK
notes: IgG format
B16: the binding result is “no binding”.

B17: MAdCAM antibody Clone ID 64 of Table 7 (IgG) (antibody, V domains shown)
VH: EVQLLESGGGLVQPGGSLRLSCAASGFTFSNSDMNWVRQAPGKGLEWVAHIWNDGSQKYYADSVKGRFTISRDNSKNTLYLQMNSLRAEDTAVYYCARDRTDPGYSSAMDVWGQGTTVTVSS
VL: B16 VL with Q24R, N34G, K50D, T53S, S56T, N92T, F94L, P100G, D105E
notes: IgG format
Consider B17, for which the binding result is reported as “no binding”.

B18: MAdCAM antibody Clone ID 73 of Table 7 (IgG) (antibody, V domains shown)
VH: QVQLVQSGAEVKKPGASVKVSCKASGYTFTSNYVHWVRQAPGQGLEWMGRINPHSGDTSYAQKFQGRVTMTRDTSTSTVYMELSSLRSEDTAVYYCARAGQLWSDWYFDLWGRGTLVTVSS
VL: B16 VL with K50A, S52T, T53A, E55R, S56T, A91S, N92Y, F94H, P100Q, D105E
notes: IgG format
With B18, the binding result was “no binding”.

B19: MAdCAM antibody Clone ID 80 of Table 7 (IgG) (antibody, V domains shown)
VH: EVQLLESGGGLVQPGGSLRLSCAASGFTFDDYAMHWVRQAPGKGLEWVSAISGSGGSTYYADSVKGRFTISRDNSKNTLYLQMNSLRAEDTAVYYCAKDLGVVVPAALDYWGQGTTVTVSS
VL: B16 VL with R30S, Y32H, K50D, T53N, S56A, A91S, N92Y, F94T, P100G, D105E
notes: IgG format
As for B19, the binding result was “no binding”.

B20: MAdCAM antibody Clone ID 45 of Table 7 (IgG) (antibody, V domains shown)
VH: EVQLVESGGGLVKPGGSLRLSCAASGFTFGDYAMSWVRQAPGKGLEWVSYISGDIGYTNYAAPVKGRFTISRDDSKNTLYLQMNSLKTEDTAVYYCARDVAATGNWYFDLWGRGTLVTVSS
VL: not shown
notes: IgG format
B20: the binding result was “no binding”.

B21: MAdCAM antibody Clone ID 61 of Table 7 (IgG) (antibody, V domains shown)
VH: QVQLVQSGAEVKKPGASVKVSCKASGDTFTGYYIHWVRQAPGQGLEWMGWINPNSGGTNYAQKFQGRVTMTRDTSTSTVYMELSSLRSEDTAVYYCARSGLWLGSYYGMDVWGQGTLVTVSS
VL: DIQMTQSPSSLSASVGDRVTITCRASQTISIWLAWYQQKPGKAPKLLIYDASTLQSGVPSRFSGSGSGTDFTLTISSLQPEDFATYYCQQYSSYPLTFGQGTKVEIK
notes: IgG format
Turning to B21, the binding result is given as “no binding”.

B22: MAdCAM antibody Clone ID 66 of Table 7 (IgG) (antibody, V domains shown)
VH: QVQLVQSGAEVKKPGASVKVSCKASGYTFTGHYMHWVRQAPGQGLEWMGIINPSGGSTSYAQKFQGRVTMTRDTSTSTVYMELSSLRSEDTAVYYCARDGAWFGEEYYYGMDVWGQGTTVTVSS
VL: DIQMTQSPSSLSASVGDRVTITCRASQGISNWLAWYQQKPGKAPKLLIYDASNLETGVPSRFSGSGSGTDFTLTISSLQPEDFATYYCQQYYSFPLYTFGQGTKVEIK
notes: IgG format
In the case of B22, the binding result is “no binding”.

B23: MAdCAM antibody Clone ID 54 of Table 7 (IgG) (antibody, V domains shown)
VH: QVQLVQSGAEVKKPGSSVKVSCKASGGTLSRYGVSWVRQAPGQGLEWMGGIIPIFGTTNYAQKFQGRVTITADESTSTAYMELSSLRSEDTAVYYCARDRVYYDSSGYPTWYFDLWGRGTLVTVSS
VL: EIVMTQSPATLSVSPGERATLSCRASQSVSSSYLAWYQQKPGQAPRLLIYGASTRATGIPARFSGSGSGTEFTLTISSLQSEDFAVYYCQQYGSSPITFGQGTKVEIK
notes: IgG format
Consider B23, for which the binding result is “no binding”.
